The source of these data is the Immune Epitope Database (IEDB).

One test concerns the target HLA-B*73:01. Nature of the test: IEDB peptide-MHC binding, purified MHC/direct/fluorescence; filed as Kd, often an IC50 or EC50 that approximates it; ≥ and ≤ were set here for values at or beyond the usual limits of such assays. The note with it: source organism: Escherichia coli O157:H7.
The next test has as its target HLA-C*06:02. The test is described as above. The note with it: source organism: Escherichia coli K-12.
The target in the next test is HLA-A*32:07. Nature of the test: IEDB peptide-MHC binding, purified MHC/competitive/fluorescence; filed as Kd, often an IC50 or EC50 that approximates it; ≥ and ≤ were set here for values at or beyond the usual limits of such assays. The settings on record: source organism: Escherichia coli K-12.
In a further test the target is HLA-B*15:42. Described as above. The settings on record: source organism: Escherichia coli K-12.
In a further test the target is HLA-B*27:20. The test is described as above. The note with it: source organism: Escherichia coli K-12.
The next test concerns the target HLA-B*40:13. The description is as above. The note with it: source organism: Escherichia coli K-12.
For another test, the target named is HLA-B*45:06. Described as above. The note with it: source organism: Escherichia coli K-12.
The next test addresses HLA-B*83:01. The test is described as above. The settings on record: source organism: Escherichia coli K-12.

In the case of RQWGMGFLL, the Kd with HLA-B*73:01 was 6 µM; with HLA-C*06:02, 1710 nM; in the test with HLA-A*32:07, 1.2 nM; with HLA-B*15:42, not below 5 µM; with HLA-B*27:20 it was not above 0.1 nM; in the test with HLA-B*40:13, not above 1 nM. In addition, the Kd with HLA-B*45:06 and with HLA-B*83:01 was not below 5 µM in each case.

As a reminder, the Kd is the equilibrium constant for the complex coming apart. Higher therefore signals weaker binding.
